In the assay the target is T1, GPR10 (UniProt P49683 1-370, limits assumed).
T1 sequence (looked up): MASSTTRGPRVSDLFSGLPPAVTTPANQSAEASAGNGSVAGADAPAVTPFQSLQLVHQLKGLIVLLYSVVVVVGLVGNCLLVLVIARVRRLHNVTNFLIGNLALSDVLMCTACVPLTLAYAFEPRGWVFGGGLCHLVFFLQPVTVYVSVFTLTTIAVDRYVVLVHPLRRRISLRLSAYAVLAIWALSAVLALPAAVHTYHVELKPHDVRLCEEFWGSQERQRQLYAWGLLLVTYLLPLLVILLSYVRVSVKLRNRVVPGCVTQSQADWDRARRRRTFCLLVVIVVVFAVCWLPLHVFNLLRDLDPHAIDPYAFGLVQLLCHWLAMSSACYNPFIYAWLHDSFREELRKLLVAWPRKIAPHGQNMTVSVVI
The assay is described as follows: cell-based or functional assay.

Bridges are numbered along the chain shown (N, C = ends). Where no end group is shown, it is not given here. L1 = not defined here; L3 = not defined here; L4 = not defined here; L5 = not defined here

In the case of TPDCNPAWYTCRGIRPVGRF-NH2 (linker 4-11 via L3; reading uncertain) [Conjugate 216], the “GPR10 EC50” value turned out to be 3.9 nM.
As to TPDINPAWCTGRGIRCVGRF-NH2 (linker 9-16 via L1; reading uncertain) [Conjugate 211], the “GPR10 EC50” value amounted to 160 nM.
As for TPDINPCWYTGRGCRPVGRF-NH2 (linker 7-14 via L5; reading uncertain) [Conjugate 224], the “GPR10 EC50” value was over 1000 nM.
In the case of TPDINPCWYTGRGCRPVGRF-NH2 (linker 7-14 via L3; reading uncertain) [Conjugate 222], the “GPR10 EC50” value is 5.2 nM.
In the case of TPDCNPAWYTCRGIRPVGRF-NH2 (linker 4-11 via L5; reading uncertain) [Conjugate 218] it was 81 nM; in that of TPDICPAWYTGCGIRPVGRF-NH2 (linker 5-12 via L5; reading uncertain) [Conjugate 221], 840 nM.
With TPDINPCWYTGRGCRPVGRF-NH2 (linker 7-14 via L1; reading uncertain) [Conjugate 209], the “GPR10 EC50” value was 10 nM.
In the case of TPDICPAWYTGCGIRPVGRF-NH2 (cysteine pairing not given here) [SEQ ID NO 83] it was 44 nM; in that of TPDINPAWCTGRGIRCVGRF-NH2 (cysteine pairing not given here) [SEQ ID NO 87], 120 nM.
Regarding TPDINPAWYTGRGIRPVGRF-NH2 [SEQ ID NO 106], the “GPR10 EC50” value is 13 nM.
For TPDINPAWYCGRGIRPCGRF-NH2 (linker 10-17 via L1; reading uncertain) [Conjugate 212] the value was over 10000 nM; for TPDCNPAWYTCRGIRPVGRF-NH2 (cysteine pairing not given here) [SEQ ID NO 105], 10 nM.
Consider TPDINPCWYTGRGCRPVGRF-NH2 (cysteine pairing not given here) [SEQ ID NO 85], for which the “GPR10 EC50” value worked out at 33 nM.
As to TCDINPAWCTGRGIRPVGRF-NH2 (cysteine pairing not given here) [SEQ ID NO 103], the “GPR10 EC50” value was found to be 33 nM.
Take TPDINCAWYTGRCIRPVGRF-NH2 (linker 6-13 via L1; reading uncertain) [Conjugate 208]: the “GPR10 EC50” value came to 15 nM.
For the molecule TCDINPAWCTGRGIRPVGRF-NH2 (linker 2-9 via L5; reading uncertain) [Conjugate 215], the “GPR10 EC50” value came to 620 nM.
For TPDINCAWYTGRCIRPVGRF-NH2 (cysteine pairing not given here) [SEQ ID NO 84] the value was 18 nM.
For CRAHQHSCETRTPDINPAWYTGRGIRPVGRF-NH2 (linker 1-8 via L1; reading uncertain) [Conjugate 225], the “GPR10 EC50” value came out at 24 nM.
For the molecule TCDINPAWCTGRGIRPVGRF-NH2 (linker 2-9 via L1; reading uncertain) [Conjugate 204], the “GPR10 EC50” value is 12 nM.
For TPDCNPAWYTCRGIRPVGRF-NH2 (linker 4-11 via L4; reading uncertain) [Conjugate 217] the value was 77 nM; for TPDINPACYTGRGICPVGRF-NH2 (cysteine pairing not given here) [SEQ ID NO 86], 6800 nM; for TCDINPAWCTGRGIRPVGRF-NH2 (linker 2-9 via L4; reading uncertain) [Conjugate 214], 230 nM.
On to TCDINPAWCTGRGIRPVGRF-NH2 (linker 2-9 via L3; reading uncertain) [Conjugate 213], for which the “GPR10 EC50” value was found to be 33 nM.
As to CRAHQHSCETRTPDINPAWYTGRGIRPVGRF-NH2 (cysteine pairing not given here) [SEQ ID NO 89], the “GPR10 EC50” value amounted to 16 nM.
For TPCINPAWYCGRGIRPVGRF-NH2 (linker 3-10 via L1; reading uncertain) [Conjugate 205] the value was 21 nM; for TPDCNPAWYTCRGIRPVGRF-NH2 (linker 4-11 via L1; reading uncertain) [Conjugate 206], 7.3 nM.
In the case of TPDINPAWYCGRGIRPCGRF-NH2 (cysteine pairing not given here) [SEQ ID NO 88], the “GPR10 EC50” value was 1600 nM.
In the case of TPDICPAWYTGCGIRPVGRF-NH2 (linker 5-12 via L3; reading uncertain) [Conjugate 219] it was 25 nM; in that of TPDICPAWYTGCGIRPVGRF-NH2 (linker 5-12 via L4; reading uncertain) [Conjugate 220], 610 nM.
For TPCINPAWYCGRGIRPVGRF-NH2 (cysteine pairing not given here) [SEQ ID NO 104] the value was 16 nM; for TPDINPACYTGRGICPVGRF-NH2 (linker 8-15 via L1; reading uncertain) [Conjugate 210], 720 nM; for TPDINPCWYTGRGCRPVGRF-NH2 (linker 7-14 via L4; reading uncertain) [Conjugate 223], over 1000 nM.
On to TPDICPAWYTGCGIRPVGRF-NH2 (linker 5-12 via L1; reading uncertain) [Conjugate 207], for which the “GPR10 EC50” value turned out to be 13 nM.
